In assay [1] the target is T1, truncated hTfR1 of SEQ ID NO:86 (human, UniProt P02786 122-760).
T1 construct: Given only as 'truncated hTfR1'; amine-coupled to a CM5 chip for SPR; also called human TfR1
The assay is described as follows: SPR (Biacore 8K), single-cycle kinetics on immobilised hTfR1 (SEQ ID NO:86), as in Example 12 [column VH first, row Human TfR1].

Assay [2] deals with T2, truncated cTfR1 of SEQ ID NO:87 (cynomolgus, UniProt Q5RDH6 122-760 (Pongo abelii entry), limits assumed).
T2 construct: Printed only as 'truncated cTfR1'; amine-coupled to a CM5 chip for SPR; also called cynomolgus TfR1
T2 chain: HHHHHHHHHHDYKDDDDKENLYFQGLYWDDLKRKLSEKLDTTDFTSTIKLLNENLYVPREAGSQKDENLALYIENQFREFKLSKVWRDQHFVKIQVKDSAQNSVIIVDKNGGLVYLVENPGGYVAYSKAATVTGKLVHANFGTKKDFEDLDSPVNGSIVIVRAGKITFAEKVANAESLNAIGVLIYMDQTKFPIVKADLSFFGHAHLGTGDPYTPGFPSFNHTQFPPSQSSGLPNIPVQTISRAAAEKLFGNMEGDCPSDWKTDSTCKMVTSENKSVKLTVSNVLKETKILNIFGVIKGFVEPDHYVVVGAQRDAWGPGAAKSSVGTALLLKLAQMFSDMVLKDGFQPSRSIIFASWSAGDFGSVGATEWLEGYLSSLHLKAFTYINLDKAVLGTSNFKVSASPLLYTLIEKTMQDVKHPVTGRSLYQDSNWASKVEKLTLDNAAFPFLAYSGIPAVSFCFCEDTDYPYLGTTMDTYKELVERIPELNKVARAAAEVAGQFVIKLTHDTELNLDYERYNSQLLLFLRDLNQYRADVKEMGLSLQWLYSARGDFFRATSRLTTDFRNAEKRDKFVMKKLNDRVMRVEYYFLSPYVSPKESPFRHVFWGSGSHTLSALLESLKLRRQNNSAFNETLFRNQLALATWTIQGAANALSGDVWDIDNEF
The assay is described as follows: SPR (Biacore 8K), single-cycle kinetics on immobilised cTfR1 (SEQ ID NO:87), as in Example 12 [column VH first, row Cynomolgus TfR1].

Assay [3] addresses T2, truncated cTfR1 of SEQ ID NO:87. Put plainly: SPR (Biacore 8K), single-cycle kinetics on immobilised cTfR1 (SEQ ID NO:87), as in Example 12 [column VL first, row Cynomolgus TfR1].
The target in assay [4] is T3, human transferrin receptor 1 (hTfR1) on cell surfaces (human, UniProt P02786 1-760).
T3 construct: Endogenous receptor on hCMEC/D3, THP-1, K562 and Ramos cells; also called CD71; endogenous hTfR1
The assay is described as follows: flow cytometry on K562 cells (hTfR1 on the surface), Fc receptors blocked, overnight at 4 °C, detection with anti-human IgG-Alexa Fluor 488. Here is the method:
Fcγ receptors were blocked using Fc receptor blocker (Innovex biosciences, #NB309-4X-40) for 30 min at 4° C., after which the cells were washed in PBS. […] The plate was incubated at 4° C. overnight. […] Staining was carried out for 30 min at 4° C. […] The cells were finally resuspended in 200 μl PBS with 1% BSA and acquired using a BD FACSLyric flow cytometer system (BD Biosciences). Samples were analyzed using flowJo software (BD Biosciences).

In assay [5] the target is T4, cynomolgus TfR1 (recombinant, construct not stated) (cynomolgus, UniProt H9EXL1 90-760 (rhesus entry)).
T4 construct: also called cTfR1; cynoTfR
Put plainly: indirect ELISA of Fabs as for hTfR1, on cTfR1 (coating construct not stated), A450 [upper right panel cTfR1].

The target of assay [6] is T1, truncated hTfR1 of SEQ ID NO:86. Put plainly: SPR, hTfR1 amine-coupled, scFv in bispecific format injected.

The values below come from patent US20260274980A1 (BIOARCTIC, published 2026).

B1: mAb158-Gen2D-h26D3 VH first (bispecific antibody, human IgG1, kappa)
heavy 1: not shown
heavy 2: not shown
light: DIVMTQAPLSLPVSLGDQASISCRSSQSIVHSNGNTYLEWYLQKPGQSPKLLIYKVSNRFSGVPDRFSGSGSGTDFTLKISRVEAEDLGIYYCFQGSHVPPTFGGGTKLEIKRTVAAPSVFIFPPSDEQLKSGTASVVCLLNNFYPREAKVQWKVDNALQSGNSQESVTEQDSKDSTYSLSSTLTLSKADYEKHKVYACEVTHQGLSSPVTKSFNRGEC
notes: Knob-into-hole antibody; also called Gen 2D construct, VH first
With B1, the binding result in assay [1] and in assay [2] was “binds” in each case.

B2: mAb158-Gen2D-h26D3 VL first (bispecific antibody, human IgG1, kappa)
heavy 1: not shown
heavy 2: not shown
light: DIVMTQAPLSLPVSLGDQASISCRSSQSIVHSNGNTYLEWYLQKPGQSPKLLIYKVSNRFSGVPDRFSGSGSGTDFTLKISRVEAEDLGIYYCFQGSHVPPTFGGGTKLEIKRTVAAPSVFIFPPSDEQLKSGTASVVCLLNNFYPREAKVQWKVDNALQSGNSQESVTEQDSKDSTYSLSSTLTLSKADYEKHKVYACEVTHQGLSSPVTKSFNRGEC
notes: Knob-into-hole antibody; also called Gen 2D construct, VL first
For the molecule B2, the binding result in assay [3] is on record as “binds”. Also, in assay [4], the “EC50 (read off the curve)” value is approximately 30 nM.

B3: h26D3-Fab (Fab, V domains shown)
VH: EVQLVQSGAEVKKPGSSVKVSCKASGYIFTDYNMDWVRQAPGQGLEWIGDINPDYDTTSYNEKFKGRATLTVDKSTSTAYMELSSLRSEDTAVYYCARGGYSGSSYYHPMDYWGQGTLVTVSS
VL: DIQMTQSPSSVSASVGDRVTITCKSSQSLLYSTNQKNYLAWYQQKPGKAPKLLIYWASTRESGVPSRFSGSGSGTDFTLTISSLQPEDFATYYCQQYFIYPRTFGQGTKVEIK
notes: His-tagged Fab from ExpiCHO; also called humanized 26D3 Fab
As for B3, in assay [5], the “EC50 (read off the curve)” value was approximately 1 nM.

B4: bispecific binding molecule (format of WO2022/258841) comprising h26D3 LC5 scFv (bispecific antibody, V domains shown)
VH: EVQLVQSGAEVKKPGSSVKVSCKASGYIFTDYNMDWVRQAPGQGLEWIGDINPDYDTTSYNEKFKGRATLTVDKSTSTAYMELSSLRSEDTAVYYCARGGYSGSSYYHPMDYWGQGTLVTVSS
VL: DIQMTQSPSSVSASVGDRVTITCKSSQSLLYSTNQKNYLAWYQQKPGKAPKLLIYWASTRESGVPSRFSGSGSGTDFTLTISSLQPEDFATYYCQQAFIYPRTFGQGTKVEIK
Molecule B4 showed a Kd in assay [6] of 400 to 500 nM.

B5: bispecific binding molecule (format of WO2022/258841) comprising h26D3 LC1 scFv (bispecific antibody, V domains shown)
VH: EVQLVQSGAEVKKPGSSVKVSCKASGYIFTDYNMDWVRQAPGQGLEWIGDINPDYDTTSYNEKFKGRATLTVDKSTSTAYMELSSLRSEDTAVYYCARGGYSGSSYYHPMDYWGQGTLVTVSS
VL: DIQMTQSPSSVSASVGDRVTITCKSSQSLLASTNQKNYLAWYQQKPGKAPKLLIYWASTRESGVPSRFSGSGSGTDFTLTISSLQPEDFATYYCQQYFIYPRTFGQGTKVEIK
Take B5: the Kd in assay [6] was approximately 40 nM.

B6: bispecific binding molecule (format of WO2022/258841) comprising h26D3 HC6 scFv (bispecific antibody, V domains shown)
VH: EVQLVQSGAEVKKPGSSVKVSCKASGYIFTDYNMDWVRQAPGQGLEWIGDINPDADTTSYNEKFKGRATLTVDKSTSTAYMELSSLRSEDTAVYYCARGGYSGSSYYHPMDYWGQGTLVTVSS
VL: DIQMTQSPSSVSASVGDRVTITCKSSQSLLYSTNQKNYLAWYQQKPGKAPKLLIYWASTRESGVPSRFSGSGSGTDFTLTISSLQPEDFATYYCQQYFIYPRTFGQGTKVEIK
As to B6, in assay [6], the Kd fell in the range of 100 to 200 nM.
